According to patent publication US20230303711A1 (BIO THERA SOLUTIONS, published 2023):
Residue numbers refer to the chain shown, from its start. Names may count otherwise.

B1: Antibody 17 (antibody, human IgG1, kappa, V domains shown)
VH: QVQLQESGPGLVKPSETLSLTCTVSGGSLDNYYWSWIRQPPGKGLEWIGYIYYSGNTNYNPSLKSRVTISVDTSKNQFSLRLRSVTAADTAVYYCARGGRFLERYWGQGTLVTVSS
VL: DIQMTQSPSSVSASVGDRVTISCRANQAIGTWLAWYQQKPGKAPKLLIYAASTLQSGVPSRFSGSGSGTEFTLTISSLQAEDVAVYYCQQYYTTPLTFGGGTKLEIKR
notes: Full-length IgG1
B2: Antibody L1 (antibody, human IgG1, kappa)
heavy: not shown
light: EIVLTQSPSTLSASVGDRVTIPCRASLSIGSFLNWYQQRPGEAPKLLIFAASSLRSGVPSRFSGSGSGTDFTLTISGLQPEDFATYYCQQTYTTPYTFGQGTKVEIKRTVAAPSVFIFPPSDEQLKSGTASVVCLLNNFYPREAKVQWKVDNALQSGNSQESVTEQDSKDSTYSLSSTLTLSKADYEKHKVYACEVTHQGLSSPVTKSFNRGEC
notes: Full-length IgG1
B3: Antibody L5 (antibody, human IgG1, kappa)
heavy: not shown
light: B2 light with T10S, Q100P, K103R, V104L
notes: Full-length IgG1
B4: Antibody L24 (antibody, human IgG1, kappa)
heavy: not shown
light: B2 light with E1D, V3Q, L4M, T10S, G77S
notes: Full-length IgG1
B5: Antibody L26 (antibody, human IgG1, kappa)
heavy: not shown
light: B2 light with T10S, G77S, V104L
notes: Full-length IgG1
B6: Antibody 16 (antibody, human IgG1, kappa, V domains shown)
VH: B1 VH with F101I, L102F, E103S, R104G
VL: B1 VL
notes: Full-length IgG1
B7: Antibody 24 (antibody, human IgG1, kappa, V domains shown)
VH: B1 VH with Y50R, Y53G, S54D, G55S, N56A, F101I, L102F, E103S, R104G
VL: B1 VL
notes: Full-length IgG1
B8: Antibody 18 (antibody, human IgG1, kappa, V domains shown)
VH: QVQLQESGPGLVKPSETLSLTCTVSGGSLDNYYWSWIRQPPGKGLEWIGYIYYSGNTNYNPSLKSRVTISVDTSKNQFSLRLRSVTAADTAVYYCARGRGIFGYWGQGTLVTVSS
VL: B1 VL
notes: Full-length IgG1
B9: Antibody 25 (antibody, human IgG1, kappa, V domains shown)
VH: B8 VH with R99G, G100R, Y104H
VL: B1 VL
notes: Full-length IgG1
B10: Antibody L12 (antibody, human IgG1, kappa)
heavy: not shown
light: B2 light with T10S, E105D
notes: Full-length IgG1
B11: Antibody 6Y-G1 (antibody, human IgG1, kappa)
heavy: not shown
light: B2 light with T10S, E105D
notes: also called Antibody L12-6; L12-6
B12: Antibody 6Y-G4 (antibody, human IgG4 S228P, kappa)
heavy: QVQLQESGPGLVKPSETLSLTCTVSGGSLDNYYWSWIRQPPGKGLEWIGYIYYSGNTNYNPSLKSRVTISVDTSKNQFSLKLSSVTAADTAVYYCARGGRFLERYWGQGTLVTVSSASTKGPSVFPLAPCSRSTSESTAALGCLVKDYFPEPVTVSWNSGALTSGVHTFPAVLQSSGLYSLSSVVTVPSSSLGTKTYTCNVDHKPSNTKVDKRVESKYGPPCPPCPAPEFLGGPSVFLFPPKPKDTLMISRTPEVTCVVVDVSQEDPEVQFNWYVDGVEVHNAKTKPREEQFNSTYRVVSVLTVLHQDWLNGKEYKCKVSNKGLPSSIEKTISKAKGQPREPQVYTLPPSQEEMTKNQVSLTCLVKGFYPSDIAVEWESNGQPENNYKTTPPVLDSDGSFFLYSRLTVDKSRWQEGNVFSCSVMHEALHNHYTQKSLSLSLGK
light: B2 light with T10S, E105D
notes: IgG4P (S228P) form of 6Y-G1
B13: Antibody 17-ScFv (scFv)
scFv: QVQLQESGPGLVKPSETLSLTCTVSGGSLDNYYWSWIRQPPGKGLEWIGYIYYSGNTNYNPSLKSRVTISVDTSKNQFSLRLRSVTAADTAVYYCARGGRFLERYWGQGTLVTVSSGGGGSGGGGSGGGGSDIQMTQSPSSVSASVGDRVTISCRANQAIGTWLAWYQQKPGKAPKLLIYAASTLQSGVPSRFSGSGSGTEFTLTISSLQAEDVAVYYCQQYYTTPLTFGGGTKLEIK
notes: VH C-terminus linked to VL N-terminus; Purified on a protein A column and detected with anti-human IgG Fc-PE, but no Fc or tag is described for it
B14: Antibody L12-10 (antibody, human IgG1, kappa)
heavy: not shown
light: B2 light with T10S, G77S
notes: Full-length IgG1
B15: Antibody L12-1 (antibody, human IgG1, kappa)
heavy: not shown
light: B2 light with T10S, P22T, R39K, E42K, F49Y, G77S
notes: Full-length IgG1
B16: Antibody L12-2 (antibody, human IgG1, kappa, V domains shown)
VH: B1 VH with R81K, R83S
VL: EIVLTQSPSSLSASVGDRVTIPCRASLSIGSFLNWYQQRPGEAPKLLIFAASSLRSGVPSRFSGSGSGTDFTLTISSLQPEDFATYYCQQTYTTPYTFGQGTKVEIKR
notes: Full-length IgG1
B17: Antibody L12-3 (antibody, human IgG1, kappa, V domains shown)
VH: B1 VH with R81K, R83S
VL: B16 VL with P22T, R39K, E42K
notes: Full-length IgG1
B18: Antibody L12-4 (antibody, human IgG1, kappa)
heavy: not shown
light: B2 light with T10S, R39K, E42K, G77S
notes: Full-length IgG1
B19: Antibody L12-5 (antibody, human IgG1, kappa)
heavy: not shown
light: B2 light with T10S, P22T, R39K, E42K, F49Y, G77S
notes: Full-length IgG1
B20: Antibody L12-7 (antibody, human IgG1, kappa)
heavy: not shown
light: B2 light with T10S, P22T, R39K, E42K, G77S
notes: Full-length IgG1
B21: Antibody L12-9 (antibody, human IgG1, kappa)
heavy: not shown
light: B2 light with E1D, V3Q, L4M, T10S, P22T, R39K, E42K, F49Y, G77S
notes: Full-length IgG1
B22: Antibody L12-11 (antibody, human IgG1, kappa)
heavy: not shown
light: B2 light with E1D, V3Q, L4M, T10S, P22T, R39K, E42K, F49Y, G77S
notes: Full-length IgG1
B23: Antibody 3 (antibody, human IgG1, kappa, V domains shown)
VH: B1 VH with N31G, Y50R, Y53G, S54N, G55S, N56T, F101I, L102F, E103A, R104G
VL: B1 VL
notes: Full-length IgG1
B24: Antibody 3-3 (antibody, human IgG1, kappa, V domains shown)
VH: B1 VH with F101I, L102F, E103G, R104G
VL: B1 VL
notes: Full-length IgG1
B25: Antibody 3-6 (antibody, human IgG1, kappa, V domains shown)
VH: B1 VH with F101I, L102F, E103A, R104G
VL: B1 VL
notes: Full-length IgG1
B26: Antibody 6 (antibody, human IgG1, kappa, V domains shown)
VH: B1 VH with D30N, N31D, Y50R, Y53G, S54N, N56D, F101I, E103A, R104G
VL: B1 VL
notes: Full-length IgG1
B27: Antibody 10 (antibody, human IgG1, kappa, V domains shown)
VH: B1 VH with Y50R, S54N, F101I, E103A, R104G
VL: B1 VL
notes: Full-length IgG1
B28: Antibody 11 (antibody, human IgG1, kappa, V domains shown)
VH: B1 VH with N31G, Y50R, Y53D, S54G, G55S, N56G, F101I, L102F, E103G, R104G
VL: B1 VL
notes: Full-length IgG1

These binders were tested against T1, His-tagged human CD47-ECD protein (CD47-His) (human, UniProt Q08722 19-139) (assay: competitive ELISA on coated CD47-His (2 µg/mL); blocked ligand SIRPα-Fc-Bio (0.1 µg/mL), HRP-streptavidin, OD450; value is parameter C of the printed 4-parameter fit).
T1 construct: Expressed in HEK293F cells; also called CD47-His antigen

Row | Binder | IC50
1 | B1 | 0.795 µg/mL
2 | B2 | 0.967 µg/mL
3 | B3 | 1.02 µg/mL
4 | B4 | 1.09 µg/mL
5 | B5 | 1.02 µg/mL

Target: T1, His-tagged human CD47-ECD protein …
Assay: as above
Remark: another data set of the same source

Row | Binder | IC50
6 | B6 | 0.975 µg/mL
7 | B7 | 1.41 µg/mL
8 | B8 | 1.23 µg/mL
9 | B9 | 1.31 µg/mL
10 | B10 | 1.18 µg/mL

What follows are binders tested against T2, macaque CD47-Fc (macaque, UniProt A0A2K5X523 19-141) (assay: ELISA on coated macaque CD47-Fc; row printed as Affinity (µg/mL)).
T2 construct: Bought reagent; not shown: Fc part of the bought fusion and any linker to it
T2 sequence (A0A2K5X523 entry or part of it limits assumed): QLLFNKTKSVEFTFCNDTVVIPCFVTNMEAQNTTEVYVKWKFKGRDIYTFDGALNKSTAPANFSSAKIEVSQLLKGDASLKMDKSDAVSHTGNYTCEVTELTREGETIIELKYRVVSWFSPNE

Row | Binder | EC50
11 | B1 | 0.064 µg/mL
12 | B11 | 0.083 µg/mL
13 | B10 | 0.066 µg/mL
14 | B12 | 0.11 µg/mL

What follows are binders tested against T3, CD47 on the cell surface (CHO-CD47 cells, Jurkat cells, Raji cells) (human, UniProt Q08722 19-323) (assay: flow cytometry competition on CHO-CD47 cells; blocked ligand SIRPα-Fc-Bio (6.5 µg/mL), streptavidin-PE; value is parameter C of the printed 4-parameter fit).
T3 construct: whole, on cells; One molecule is used for CD47 on CHO-CD47, Jurkat and Raji cells; also called CHO surface CD47; Jurkat cell surface CD47

Row | Binder | IC50
15 | B13 | 15.1 µg/mL

Each binder was assayed against T1, His-tagged human CD47-ECD protein … (assay: competitive ELISA on coated CD47-His (2 µg/mL); blocked ligand SIRPα-Fc-Bio (0.1 µg/mL), HRP-streptavidin, OD450; value is parameter C of the printed 4-parameter fit; inhibition is partial (A 1.373, D 0.661)).

Row | Binder | IC50
16 | B13 | 0.936 µg/mL

Each binder was assayed against T1, His-tagged human CD47-ECD protein … (assay: BLI (Fortebio), antibody on protein A sensor, CD47-His in solution).

Row | Binder | Kd
17 | B14 | 0.195 nM
18 | B11 | 0.142 nM
19 | B10 | 0.112 nM
20 | B15 | 0.152 nM
21 | B16 | 0.122 nM
22 | B17 | 0.144 nM
23 | B18 | 0.107 nM
24 | B19 | 0.138 nM
25 | B20 | 0.149 nM
26 | B21 | 0.124 nM
27 | B22 | 0.175 nM

These binders were tested against T3, CD47 on the cell surface (CHO-CD47 …) (assay: flow cytometry on Jurkat cells, goat anti-human IgG Fc-PE, PE-A mean fluorescence).

Row | Binder | EC50 (read off the curve)
28 | B13 | ~1 µg/mL

Target: T1, His-tagged human CD47-ECD protein …
Assay: competitive ELISA on coated CD47-His (2 µg/mL); blocked ligand SIRPα-Fc-Bio (0.1 µg/mL), HRP-streptavidin, OD450; value is parameter C of the printed 4-parameter fit
Remark: another data set of the same source

Row | Binder | IC50
29 | B11 | 0.913 µg/mL
30 | B12 | 0.763 µg/mL

Target: T1, His-tagged human CD47-ECD protein …
Assay: as above
Remark: another data set of the same source

Row | Binder | IC50
31 | B23 | 0.844 µg/mL
32 | B24 | 0.939 µg/mL
33 | B25 | 1.12 µg/mL
34 | B26 | 1.1 µg/mL
35 | B27 | 1.06 µg/mL
36 | B28 | 0.921 µg/mL

The binders below were run against T3, CD47 on the cell surface (CHO-CD47 …) (assay: flow cytometry on CHO-CD47 cells, goat anti-human IgG Fc-PE, PE-A mean fluorescence).

Row | Binder | EC50 (read off the curve)
37 | B13 | ~1 µg/mL
